Data: publication PMC8565348

Experiments:
[1] = target: untagged BrxU (Escherichia fergusonii ATCC 35469); experiment: SEC; analytical SEC, Superdex 200 Increase 5/150, 20 mM Tris-HCl pH 7.9, 150 mM NaCl; 500 nM BrxU pre-incubated at 37°C for 15 min; no nucleotide, no MgSO4; dimer to monomers
[2] = target: His6-BrxU WT (Escherichia fergusonii ATCC 35469); experiment: SEC; analytical SEC, Superdex 200 Increase 5/150, 20 mM Tris-HCl pH 7.9, 150 mM NaCl; 500 nM BrxU pre-incubated at 37°C for 15 min with 10 mM MgSO4, no nucleotide; dimer to monomers

Row | Substance | stoichiometry N [1] | stoichiometry N [2]
1 | untagged BrxU (enzyme) | 2 | –
2 | His6-BrxU WT (enzyme) | – | 2
